In the supplement of paper PMC7877785:
± gives the uncertainty stated by the source.

Assay: self-splicing fitness, log relative to wild type (ln ratio); higher = more splicing; Tetrahymena group I intron in knt gene, E. coli kanamycin selection, DiMSum; sequences stand for … in CUCUCU…GGAGGGAAAAGUUAUCAGGCAUGCACCUGGUAGCUAGUCUUUAAACCAAUAGAUUGCAUCGGUUUAAAAGGCAAGACCGUCAAAUUGCGGGAAAGGGGUCAACAGCCGUUCAGUACCAAGUCUCAGGGGAAACUUUGAGAUGGCCUUGCAAAGGGUAUGGUAAUAAGCUGACGGACAUGGUCCUAACCACGCAGCCAAGUCCUAAGUCAACAGAUCUUCUGUUGAUAUGGAUGCAGUUCACAGACUAAAUGUCGGUCGGGGAAGAUGUAUUCUUCUCAUAAGAUAUAGUCGGACCUCUCCUUAAUGGGAGCUAGCGGAUGAAGUGAUGCAACACUGGAGCCGCUGGGAACUAAUUUGUAUGCGAAAGUAUAUUGAUUAGUUUUGGAGUACUCGUGGUCG
How it was run: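 Pooled colonies went to amplicon sequencing on an Illumina HiSeq 2500 after six replicate transformations. The plates were LB agar with 100 μg/mL carbenicillin, 50 μM IPTG and 0.2% rhamnose, with or without 25 μg/mL kanamycin, incubated overnight at 37°C or 30°C. The E. coli BL21(DE3) library had all eight P1ex-region intron nucleotides randomised, the intron placed in the knt kanamycin-resistance gene on pET-22b(+). DiMSum fitness is the error-weighted combination of replicate fold changes, kanamycin against none, normalised to wild type.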

Sequence | self-splicing fitness (ln) (30 °C) | self-splicing fitness (ln) (37 °C)
GCGUAGCAAUAUUACGUUUU | -3.15 ± 0.14 | -1.8 ± 0.13
UGCUAGCAAUAUUACGAGCU | -0.987 ± 0.068 | -0.622 ± 0.082
CUGAAGCAAUAUUACGAUCU | -3.3 ± 0.16 | -3.2 ± 0.28
CCGAAGCAAUAUUACGCCGU | -2.44 ± 0.27 | -1.04 ± 0.36
CGGCAGCAAUAUUACGUCGA | -3.24 ± 0.19 | -1.07 ± 0.15
UAGUAGCAAUAUUACGUUCA | -0.66 ± 0.15 | 0.327 ± 0.15
AGCCAGCAAUAUUACGUUAU | -3.94 ± 0.19 | -1.75 ± 0.12
AGGGAGCAAUAUUACGAACG | -2.58 ± 0.39 | -1.9 ± 0.36
UACCAGCAAUAUUACGGCGG | -1.07 ± 0.058 | -0.549 ± 0.081
UCCUAGCAAUAUUACGCUUG | -3.79 ± 0.21 | -2.46 ± 0.17
GCGAAGCAAUAUUACGUACU | -0.436 ± 0.073 | 0.194 ± 0.09
AACCAGCAAUAUUACGCCAG | -2.46 ± 0.14 | -1.72 ± 0.18
GCACAGCAAUAUUACGCCGU | -1.51 ± 0.1 | 0.145 ± 0.14
GGUCAGCAAUAUUACGGCCU | -2.84 ± 0.29 | -2.34 ± 0.45
AACUAGCAAUAUUACGGCAU | -0.42 ± 0.062 | -0.127 ± 0.075
UUACAGCAAUAUUACGUAUG | -0.997 ± 0.054 | -0.53 ± 0.068
GGACAGCAAUAUUACGAUAC | -0.672 ± 0.084 | -0.478 ± 0.098
CUCUAGCAAUAUUACGCUCC |  | -1.03 ± 0.36
GUACAGCAAUAUUACGCGGU | -3.17 ± 0.15 | -2.31 ± 0.15
ACGCAGCAAUAUUACGGCGA | -0.895 ± 0.1 | -0.0901 ± 0.14
ACUAAGCAAUAUUACGGCGC | -0.144 ± 0.099 | -0.477 ± 0.096
UUUUAGCAAUAUUACGUAUU | -3.2 ± 0.35 | -1.04 ± 0.38
ACUCAGCAAUAUUACGGCUA | -0.553 ± 0.089 | 0.149 ± 0.093
ACCGAGCAAUAUUACGGCUU | -2.63 ± 0.12 | -1.14 ± 0.13
CAACAGCAAUAUUACGGGUA | -3.03 ± 0.12 | -1.22 ± 0.084
GUUAAGCAAUAUUACGGCGC | 0.441 ± 0.15 | -0.509 ± 0.14

Sequence | self-splicing fitness (ln) (30 °C) | self-splicing fitness (ln) (37 °C)
AGUGAGCAAUAUUACGAGGG | -3.75 ± 0.24 | -2.13 ± 0.35
AGAUAGCAAUAUUACGAUCA | -0.325 ± 0.089 | -0.00339 ± 0.11
UUGGAGCAAUAUUACGGUCA | -1.21 ± 0.16 | -2.65 ± 0.23
CUACAGCAAUAUUACGGAGG | -2.21 ± 0.087 | -1.33 ± 0.11
CCAAAGCAAUAUUACGUGUC | -3.56 ± 0.21 | -3.6 ± 0.29
CCUCAGCAAUAUUACGUUCC | -3.09 ± 0.15 | -2.42 ± 0.33
AGCCAGCAAUAUUACGGCAG | -1.01 ± 0.065 | -1.18 ± 0.092
UGCGAGCAAUAUUACGUCAU | -4.84 ± 0.46 | -2.95 ± 0.23
GUGAAGCAAUAUUACGUAAG | -0.979 ± 0.088 | -0.0954 ± 0.13
CAUCAGCAAUAUUACGCCUG | -0.718 ± 0.092 | -0.495 ± 0.098
ACGUAGCAAUAUUACGCCCC | -1.38 ± 0.27 | -1.28 ± 0.29
CUUGAGCAAUAUUACGUGGA | -2.88 ± 0.24 | -3.25 ± 0.33
CAUCAGCAAUAUUACGAAGA | -2.97 ± 0.27 | -0.441 ± 0.15
AAGAAGCAAUAUUACGUCAU | -1.81 ± 0.075 | -1.04 ± 0.1
CAUGAGCAAUAUUACGCUAA |  | -2.94 ± 0.43
CUUCAGCAAUAUUACGAAGC | -2.1 ± 0.17 | -2.43 ± 0.48
UUUUAGCAAUAUUACGACUA | -0.401 ± 0.18 | 0.109 ± 0.14
AGGGAGCAAUAUUACGUGAU | -3.34 ± 0.25 | -2.91 ± 0.26
GGGGAGCAAUAUUACGUUGU |  | -1.82 ± 0.28
UAUGAGCAAUAUUACGUCGG | -2.86 ± 0.23 | -2.18 ± 0.2
AUAUAGCAAUAUUACGACUU | 0.217 ± 0.073 | -0.272 ± 0.075
ACCUAGCAAUAUUACGUAAU | -1.28 ± 0.049 | -0.573 ± 0.066
AAUGAGCAAUAUUACGCCGU |  | -2.55 ± 0.26
UUACAGCAAUAUUACGUUCU | -1.6 ± 0.13 | -1.01 ± 0.11
GUAUAGCAAUAUUACGGUAU | -2.73 ± 0.18 | -2.26 ± 0.19
GAGUAGCAAUAUUACGGUAC | -2.69 ± 0.37 | -2.01 ± 0.33

Sequence | self-splicing fitness (ln) (30 °C) | self-splicing fitness (ln) (37 °C)
UAGGAGCAAUAUUACGUUGU | -3.31 ± 0.26 | -2.35 ± 0.23
UAGAAGCAAUAUUACGAGUG | -0.527 ± 0.048 | -0.505 ± 0.071
AGGGAGCAAUAUUACGUUCU | -3.19 ± 0.44 | 
GACUAGCAAUAUUACGAGCA | -1.51 ± 0.14 | -0.564 ± 0.13
GGAAAGCAAUAUUACGCAGA | -3.75 ± 0.28 | -1.52 ± 0.18
UCGUAGCAAUAUUACGGUGU | -3.09 ± 0.13 | -2.7 ± 0.19
UCAAAGCAAUAUUACGACUU | -4 ± 0.23 | -2.36 ± 0.17
CUUUAGCAAUAUUACGGUAC | -2.49 ± 0.28 | -3.08 ± 0.47
CUGAAGCAAUAUUACGGAAU | -3.01 ± 0.15 | -1.96 ± 0.15
CGGUAGCAAUAUUACGACGG | -0.359 ± 0.081 | 0.071 ± 0.12
ACGGAGCAAUAUUACGAUCU | -2.61 ± 0.14 | -1.37 ± 0.11
GAACAGCAAUAUUACGAAUC | -1.76 ± 0.08 | -1.9 ± 0.13
GUCAAGCAAUAUUACGUGUG | -2.69 ± 0.068 | -1.61 ± 0.071
GGCAAGCAAUAUUACGUUCU | -0.68 ± 0.089 | 0.436 ± 0.11
AGUAAGCAAUAUUACGGAUA | -2.85 ± 0.28 | -1.69 ± 0.21
UUAGAGCAAUAUUACGAAGU | -3.03 ± 0.21 | -1.98 ± 0.28
GAUUAGCAAUAUUACGUUUU | -3.88 ± 0.28 | -1.59 ± 0.16
AAAAAGCAAUAUUACGGCUC | -0.28 ± 0.076 | 0.157 ± 0.098
UCCAAGCAAUAUUACGACAA | -2.14 ± 0.13 | -1.47 ± 0.1
GAGUAGCAAUAUUACGGCGG | -4.56 ± 0.36 | -2.02 ± 0.21
CUGUAGCAAUAUUACGAUAU | -4.06 ± 0.32 | -2.75 ± 0.32
GCAAAGCAAUAUUACGUUAG | -3.02 ± 0.13 | -1.82 ± 0.14
AUAGAGCAAUAUUACGAUAC | -0.998 ± 0.12 | -0.0688 ± 0.19
UGGUAGCAAUAUUACGAACA | -0.325 ± 0.15 | 0.205 ± 0.27
GGAAAGCAAUAUUACGACCU | -0.756 ± 0.15 | -0.363 ± 0.18
